What was measured:
[1] = molecular target: globular head of H5 HA, HA1 fragment between residue D55 and E271 (F55–271) of A/Anhui/1/2005 (Influenza A virus A/Anhui/1/2005 (H5N1)); experiment: crystal structure; details: both partners purified
[2] = molecular target: HA fragment between residues I60 and G263 (F60–263) of A/Anhui/1/05, displayed on yeast (Influenza A virus A/Anhui/1/2005 (H5N1), strain); experiment: flow cytometry on cells; details: one partner purified

Binder | binding result [1] | binding result [2]
AVFluIgG03 Fab (Fab, V domains shown, also called Fab of AVFluIgG03; AVFulgG03) VH: EVQLLESGGGLVQPGGSLRVSCTNSGFTFSNYAMSWVRQAPGKGLEWVSAISGNGGSGTYYADSVKGRFTISRDNSKNTMYLQMNSLRAEDTAVYYCVRDDSYDGGGHYGLHNWFDSWGQGTLVTVSS VL: SVLTQPPSVSGAPGQRVTISCTGSSSNIGAGYDVHWYQQLPGTAPKLLIYGNSNRPSGVPDRFSGSKSGTSASLAITGLQAEDEADYYCQSYDSSVVVFGGGTKLEIK | binds | 
AVFluIgG03, full-length human IgG1 (antibody, V domains shown, IgG1; also called AVFulgG03; AVFluIg03; source: 293 T cells, transient transfection, purified (Protein A agarose)) VH: EVQLLESGGGLVQPGGSLRVSCTNSGFTFSNYAMSWVRQAPGKGLEWVSAISGNGGSGTYYADSVKGRFTISRDNSKNTMYLQMNSLRAEDTAVYYCVRDDSYDGGGHYGLHNWFDSWGQGTLVTVSS VL: SVLTQPPSVSGAPGQRVTISCTGSSSNIGAGYDVHWYQQLPGTAPKLLIYGNSNRPSGVPDRFSGSKSGTSASLAITGLQAEDEADYYCQSYDSSVVVFGGGTKLEIK |  | binds
65C6 Fab (Fab, V domains shown) VH: EVQLVQSGAEVKKPGESLRISCKGFAYSSTYFWISWVRQMPGKGLEWMGRIDPTDSYINYSPSFQGHVTISVDRSISTVYLQWSSLKASDTAMYYCAYHRRGHFYGSGSAWDWFESWGQGTLVTVSS VL: EIVLTQSPLTLSVSPGERATLSCRASQSVSSNLAWYQQMPGQAPRLLIYGASTRATGIPARLSGSASGTEFTLTISSLQSEDFAVYYCQQYNNWPYTFGQGTKLEIK | binds | 
65C6, full-length human IgG1 (antibody, V domains shown, IgG1; source: 293 T cells, transient transfection, purified (Protein A agarose)) VH: EVQLVQSGAEVKKPGESLRISCKGFAYSSTYFWISWVRQMPGKGLEWMGRIDPTDSYINYSPSFQGHVTISVDRSISTVYLQWSSLKASDTAMYYCAYHRRGHFYGSGSAWDWFESWGQGTLVTVSS VL: EIVLTQSPLTLSVSPGERATLSCRASQSVSSNLAWYQQMPGQAPRLLIYGASTRATGIPARLSGSASGTEFTLTISSLQSEDFAVYYCQQYNNWPYTFGQGTKLEIK |  | binds
100F4, full-length human IgG1 (antibody, V domains shown, IgG1; source: 293 T cells, transient transfection, purified (Protein A agarose)) VH: QLQLQESGLGLVKPSETLSLTCTVSGDSVSSGSYYWSWLRQPPGKGLEWIGNMHGSGHTNYNPSLKSRVTITPDTSKNHFSLRLSSVTAADTAVYYCARALLTTVTTFEYWGQGTLVTVSS VL: QSALTQPPSVSGAPGQRVTIPCTGGSSNIGAGYSVHWYQQLPGTAPKLLIYGSNSRPSGVPDRFSGSKSGTSASLAITGLRPEDEADYYCQSYDSSLSGSQVFGAGTRVTVL |  | binds

Reference: PMC4686829 (Nature Communications, 2015)
